Laboratory results taken from the supplement of paper PMC10567573.

B1: C8orf76 (parent)
chain: KLAEAYLNLGPALSAALASSQKQH

Variants of: B1
Assay: protein stability index of a GFP-peptide fusion (GPS, HEK-293T) (PSI 1-6); higher = more stable
Details: c terminus: a fixed tail appended
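Note: lentivirally expressed fusions sorted by FACS into six bins by GFP to DsRed ratio, PSI derived from sequencing read proportions per bin multiplied by bin number.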

| Variant | protein stability index |
| --- | --- |
| KLAEAYLNLGPALSAALAMSQKQH [S19M] | 3.29 |
| KLAEAYLNLGPALSAALANSQKQH [S19N] | 3 |
| KLAEAYLNLGPALSAALAPSQKQH [S19P] | 2.08 |
| KLAEAYLNLGPALSAALAQSQKQH [S19Q] | 2.43 |
| KLAEAYLNLGPALSAALARSQKQH [S19R] | 2.74 |
| KLAEAYLNLGPALSAALATSQKQH [S19T] | 3.75 |
| KLAEAYLNLGPALSAALAVSQKQH [S19V] | 2.64 |
| KLAEAYLNLGPALSAALAWSQKQH [S19W] | 2.57 |
| KLAEAYLNLGPALSAALAYSQKQH [S19Y] | 2.84 |
| KLAEAYLNLGPALSAALASAQKQH [S20A] | 3.74 |
| KLAEAYLNLGPALSAALASCQKQH [S20C] | 3.5 |
| KLAEAYLNLGPALSAALASDQKQH [S20D] | 1.48 |
| KLAEAYLNLGPALSAALASEQKQH [S20E] | 1.3 |
| KLAEAYLNLGPALSAALASGQKQH [S20G] | 2.46 |
| KLAEAYLNLGPALSAALASHQKQH [S20H] | 3.47 |
| KLAEAYLNLGPALSAALASIQKQH [S20I] | 4.43 |
| KLAEAYLNLGPALSAALASKQKQH [S20K] | 1.6 |
| KLAEAYLNLGPALSAALASLQKQH [S20L] | 3.21 |
| KLAEAYLNLGPALSAALASMQKQH [S20M] | 2.44 |
| KLAEAYLNLGPALSAALASNQKQH [S20N] | 2.26 |
| KLAEAYLNLGPALSAALASPQKQH [S20P] | 2.23 |
| KLAEAYLNLGPALSAALASRQKQH [S20R] | 2.13 |
| KLAEAYLNLGPALSAALASTQKQH [S20T] | 1.9 |
| KLAEAYLNLGPALSAALASVQKQH [S20V] | 3.17 |

| Variant | protein stability index |
| --- | --- |
| KLAEAYLNLGPALSAALASWQKQH [S20W] | 3.33 |
| KLAEAYLNLGPALSAALASYQKQH [S20Y] | 2.2 |
| KLAEAYLNLGPALSAALASSAKQH [Q21A] | 4.28 |
| KLAEAYLNLGPALSAALASSDKQH [Q21D] | 1.97 |
| KLAEAYLNLGPALSAALASSEKQH [Q21E] | 1.78 |
| KLAEAYLNLGPALSAALASSFKQH [Q21F] | 2.97 |
| KLAEAYLNLGPALSAALASSGKQH [Q21G] | 3.38 |
| KLAEAYLNLGPALSAALASSHKQH [Q21H] | 2.42 |
| KLAEAYLNLGPALSAALASSIKQH [Q21I] | 2.71 |
| KLAEAYLNLGPALSAALASSKKQH [Q21K] | 2.1 |
| KLAEAYLNLGPALSAALASSLKQH [Q21L] | 1.8 |
| KLAEAYLNLGPALSAALASSMKQH [Q21M] | 3.44 |
| KLAEAYLNLGPALSAALASSNKQH [Q21N] | 3.31 |
| KLAEAYLNLGPALSAALASSPKQH [Q21P] | 2.18 |
| KLAEAYLNLGPALSAALASSRKQH [Q21R] | 3.07 |
| KLAEAYLNLGPALSAALASSSKQH [Q21S] | 2.38 |
| KLAEAYLNLGPALSAALASSTKQH [Q21T] | 3.01 |
| KLAEAYLNLGPALSAALASSVKQH [Q21V] | 2.99 |
| KLAEAYLNLGPALSAALASSWKQH [Q21W] | 2.31 |
| KLAEAYLNLGPALSAALASSYKQH [Q21Y] | 4.14 |
| KLAEAYLNLGPALSAALASSQAQH [K22A] | 2.91 |
| KLAEAYLNLGPALSAALASSQCQH [K22C] | 3.44 |
| KLAEAYLNLGPALSAALASSQDQH [K22D] | 1.69 |
| KLAEAYLNLGPALSAALASSQEQH [K22E] | 4.71 |

| Variant | protein stability index |
| --- | --- |
| KLAEAYLNLGPALSAALASSQFQH [K22F] | 2.69 |
| KLAEAYLNLGPALSAALASSQGQH [K22G] | 3.43 |
| KLAEAYLNLGPALSAALASSQHQH [K22H] | 2.52 |
| KLAEAYLNLGPALSAALASSQIQH [K22I] | 3.1 |
| KLAEAYLNLGPALSAALASSQLQH [K22L] | 3.34 |
| KLAEAYLNLGPALSAALASSQMQH [K22M] | 2.41 |
| KLAEAYLNLGPALSAALASSQNQH [K22N] | 1.83 |
| KLAEAYLNLGPALSAALASSQPQH [K22P] | 4.17 |
| KLAEAYLNLGPALSAALASSQQQH [K22Q] | 2.76 |
| KLAEAYLNLGPALSAALASSQRQH [K22R] | 4.21 |
| KLAEAYLNLGPALSAALASSQSQH [K22S] | 3.07 |
| KLAEAYLNLGPALSAALASSQTQH [K22T] | 4.43 |
| KLAEAYLNLGPALSAALASSQWQH [K22W] | 4.77 |
| KLAEAYLNLGPALSAALASSQYQH [K22Y] | 3.64 |
| KLAEAYLNLGPALSAALASSQKAH [Q23A] | 3.15 |
| KLAEAYLNLGPALSAALASSQKCH [Q23C] | 2.22 |
| KLAEAYLNLGPALSAALASSQKDH [Q23D] | 1.97 |
| KLAEAYLNLGPALSAALASSQKEH [Q23E] | 3.74 |
| KLAEAYLNLGPALSAALASSQKFH [Q23F] | 2.92 |
| KLAEAYLNLGPALSAALASSQKHH [Q23H] | 2.74 |
| KLAEAYLNLGPALSAALASSQKIH [Q23I] | 2.73 |
| KLAEAYLNLGPALSAALASSQKKH [Q23K] | 2.07 |
| KLAEAYLNLGPALSAALASSQKLH [Q23L] | 2.86 |
| KLAEAYLNLGPALSAALASSQKMH [Q23M] | 2.85 |

| Variant | protein stability index |
| --- | --- |
| KLAEAYLNLGPALSAALASSQKNH [Q23N] | 1.99 |
| KLAEAYLNLGPALSAALASSQKPH [Q23P] | 2.57 |
| KLAEAYLNLGPALSAALASSQKRH [Q23R] | 2.04 |
| KLAEAYLNLGPALSAALASSQKSH [Q23S] | 2.91 |
| KLAEAYLNLGPALSAALASSQKTH [Q23T] | 2.83 |
| KLAEAYLNLGPALSAALASSQKVH [Q23V] | 2.9 |
| KLAEAYLNLGPALSAALASSQKWH [Q23W] | 2.43 |
| KLAEAYLNLGPALSAALASSQKYH [Q23Y] | 2.51 |
| KLAEAYLNLGPALSAALASSQKQA [H24A] | 4.29 |
| KLAEAYLNLGPALSAALASSQKQC [H24C] | 3.67 |
| KLAEAYLNLGPALSAALASSQKQD [H24D] | 1.67 |
| KLAEAYLNLGPALSAALASSQKQE [H24E] | 1.47 |
| KLAEAYLNLGPALSAALASSQKQF [H24F] | 3.48 |
| KLAEAYLNLGPALSAALASSQKQI [H24I] | 2.4 |
| KLAEAYLNLGPALSAALASSQKQK [H24K] | 1.76 |
| KLAEAYLNLGPALSAALASSQKQL [H24L] | 2.44 |
| KLAEAYLNLGPALSAALASSQKQM [H24M] | 3.02 |
| KLAEAYLNLGPALSAALASSQKQN [H24N] | 2.29 |
| KLAEAYLNLGPALSAALASSQKQP [H24P] | 2.62 |
| KLAEAYLNLGPALSAALASSQKQQ [H24Q] | 3.32 |
| KLAEAYLNLGPALSAALASSQKQR [H24R] | 3 |
| KLAEAYLNLGPALSAALASSQKQS [H24S] | 2.83 |
